Paper PMC4593522, “Development of a Radiolabeled Peptide-Based Probe Targeting MT1-MMP for Breast Cancer Detection” (PLoS ONE, 2015)
Read-outs that look alike come from different tables or passages of the source. Square brackets hold non-standard residues; d marks the D form. Peptide text beside a SMILES is read from it. * marks the point of attachment. HYNIC = NNc1ccc(C(=O)*)cn1; AEEA = NCCOCCOCC(=O)O

Key:
[1] = tested on: MT1-MMP-positive MDA-MB-231 tumor; test: SPECT imaging of MDA-MB-231 tumor-bearing mice; assay type: in vivo; conditions: mean ± SD; for tumor uptake (SPECT ROI), blocking: 200 μg unlabeled AF7P injected 30 min ahead of tracer; for tumor uptake (SPECT ROI), unblocked: i.v.
Description: (§1) All animal experiments were approved by Jilin University Health Science Center Animal Care and Use Committee. Human breast carcinoma cell line MDA-MB-231 with high MT1-MMP expression and human lung adenocarcinomaepithelial cell line A549 with low MT1-MMP expression were cultured in DMEM medium containing 10% (v/v) fetal bovine serum (Invitrogen) supplemented with penicillin (100 μg/mL) and streptomycin (100 μg/mL) at 37°C with 5% CO2. MDA-MB-231 and A549 tumor models were established by subcutaneous injection of 5×10^6 cells into the upper right front flank of female athymic nude mice (Department of Experimental Animal, Peking University Health Science Center). Tumor growth was monitored by caliper measurements three times a week after the tumors are palpable. The mice were used for SPET/CT imaging when the tumor volume reached about 200 mm3 (about 14 days after tumor inoculations). The tumor volume was determined as the formula: V = a × (b^2)/2, where a and b are the length and width of each tumor in mm respectively. During the injection and image acquisition process, the mice were anesthetized with 2.5% isoflurane in oxygen delivered at a flow rate of 1.5 L/min.
The imaging study was performed using the female BALB/c nude mice bearing the MDA-MB-231 tumors and A549 tumors. Each tumor-bearing mouse was administered intravenously with [^99mTc]-(HYNIC-AF7P)(tricine)(TPPTS) (22.2 MBq/mice) in 0.1 mL saline. For blocking test, 200 μg free AF7P was intravenously injected into MDA-MB-231 tumor bearing mice 30 min before [^99mTc]-(HYNIC-AF7P)(tricine)(TPPTS) was injected. Animals were placed prone on a two-head γ-camera (SIEMENS, E. CAM) equipped with a parallel-hole, low-energy, and high-resolution collimator. Posterior images were acquired at 0.5, 2 and 4 hours post injection (p.i.). The acquisition count limits were set at 700k. After completion of imaging, animals were sacrificed by cervical dislocation.

[2] = In vivo biodistribution study (ex vivo organ counting); parameters: species or system mice; conditions: female, mouse, iv, total radioactivity, mean ± SD, n = 3; for tissue uptake at 0.5 h: 0.5h after i.v.; for tissue uptake at 1 h: 1h after i.v.; for tissue uptake at 2 h: 2h after i.v.; for tissue uptake at 4 h: 4h after i.v.
Description: as §1
Animals were divided into 4 groups (n = 3) for 4 time points with approximately equal distribution of tumor sizes on the day before the study. At 0.5, 1, 2, and 4 h after intravenous administration of [^99mTc]-(HYNIC-AF7P)(tricine)(TPPTS), MDA-MB-231 tumor bearing mice were euthanized. […] The organ uptake was calculated as a percentage of the injected dose per gram of wet tissue (%ID/g).

[3] = BALB/c nude, blood, read-out: Blood uptake
[4] = BALB/c nude, bone, read-out: Bone uptake
[5] = BALB/c nude, heart, read-out: Heart uptake
[6] = BALB/c nude, kidney, read-out: Kidney uptake
[7] = BALB/c nude, liver, read-out: Liver uptake
[8] = BALB/c nude, lung, read-out: Lung uptake
[9] = BALB/c nude, muscle, read-out: Muscle uptake
[10] = BALB/c nude, spleen, read-out: Spleen uptake
[11] = athymic nude, intestine, read-out: Intestine uptake
[12] = athymic nude, pancreas, read-out: Pancreas uptake

CC(C)C[C@H](NC(=O)[C@H](Cc1ccccc1)NC(=O)[C@@H](NC(=O)[C@H](CCCCN)NC(=O)[C@@H](NC(=O)[C@H](CC(N)=O)NC(=O)[C@H](Cc1c[nH]cn1)NC(=O)[C@H](CC(C)C)NC(=O)[C@H](Cc1c[nH]cn1)NC(=O)[C@H](CCCCN)NC(=O)[C@H](Cc1c[nH]c2ccccc12)NC(=O)[C@H](Cc1c[nH]cn1)NC(=O)c1ccc(NN)nc1)[C@@H](C)O)[C@@H](C)O)C(=O)NCCOCCOCC(=O)O [[^99mTc]-(HYNIC-AF7P)(tricine)(TPPTS), metal not drawn] ({HYNIC}-HWKHLHNTKTFL[AEEA]-OH)
tumor uptake (SPECT ROI), blocking ([1]; 0.5 h p.i.): 1.15±0.05 %ID/g
tumor uptake (SPECT ROI), unblocked ([1]; 0.5 h p.i.): 4.15±0.27 %ID/g
tumor uptake (SPECT ROI), blocking ([1]; 2 h p.i.): 1.05±0.12 %ID/g
tumor uptake (SPECT ROI), unblocked ([1]; 2 h p.i.): 2.58±0.21 %ID/g
tumor uptake (SPECT ROI), blocking ([1]; 4 h p.i.): 1.03±0.34 %ID/g
tumor uptake (SPECT ROI), unblocked ([1]; 4 h p.i.): 1.59±0.11 %ID/g
tissue uptake at 0.5 h [2, 3]: 0.36 ± 0.02 %ID/g
tissue uptake at 1 h [2, 3]: 0.28 ± 0.01 %ID/g
tissue uptake at 2 h [2, 3]: 0.2 ± 0.01 %ID/g
tissue uptake at 4 h [2, 3]: 0.19 ± 0.01 %ID/g
tissue uptake at 0.5 h [2, 4]: 0.8 ± 0.04 %ID/g
tissue uptake at 1 h [2, 4]: 0.58 ± 0.03 %ID/g
tissue uptake at 2 h [2, 4]: 0.44 ± 0.02 %ID/g
tissue uptake at 4 h [2, 4]: 0.4 ± 0.02 %ID/g
tissue uptake at 0.5 h [2, 5]: 2.28 ± 0.16 %ID/g
tissue uptake at 1 h [2, 5]: 1.67 ± 0.2 %ID/g
tissue uptake at 2 h [2, 5]: 0.98 ± 0.07 %ID/g
tissue uptake at 4 h [2, 5]: 0.64 ± 0.04 %ID/g
tissue uptake at 0.5 h [2, 6]: 8.86 ± 0.48 %ID/g
tissue uptake at 1 h [2, 6]: 7.42 ± 0.43 %ID/g
tissue uptake at 2 h [2, 6]: 4.84 ± 0.19 %ID/g
tissue uptake at 4 h [2, 6]: 4.33 ± 0.2 %ID/g
tissue uptake at 0.5 h [2, 7]: 5.22 ± 0.17 %ID/g
tissue uptake at 1 h [2, 7]: 3.9 ± 0.32 %ID/g
tissue uptake at 2 h [2, 7]: 2.89 ± 0.11 %ID/g
tissue uptake at 0.5 h [2, 8]: 2.11 ± 0.06 %ID/g
tissue uptake at 1 h [2, 8]: 1.45 ± 0.18 %ID/g
tissue uptake at 2 h [2, 8]: 1.01 ± 0.03 %ID/g
tissue uptake at 4 h [2, 8]: 0.7 ± 0.09 %ID/g
tissue uptake at 0.5 h [2, 9]: 0.9 ± 0.06 %ID/g
tissue uptake at 1 h [2, 9]: 0.68 ± 0.09 %ID/g
tissue uptake at 2 h [2, 9]: 0.53 ± 0.04 %ID/g
tissue uptake at 4 h [2, 9]: 0.52 ± 0.04 %ID/g
tissue uptake at 0.5 h [2, 10]: 0.9 ± 0.07 %ID/g
tissue uptake at 1 h [2, 10]: 0.71 ± 0.06 %ID/g
tissue uptake at 2 h [2, 10]: 0.56 ± 0.06 %ID/g
tissue uptake at 4 h [2, 10]: 0.41 ± 0.02 %ID/g
tissue uptake at 0.5 h [2, 11]: 1.91 ± 0.05 %ID/g
tissue uptake at 1 h [2, 11]: 1.61 ± 0.07 %ID/g
tissue uptake at 2 h [2, 11]: 1.52 ± 0.12 %ID/g
tissue uptake at 4 h [2, 11]: 1.14 ± 0.08 %ID/g
tissue uptake at 4 h ([2]; athymic nude, liver, read-out: Liver uptake): 2.55 ± 0.1 %ID/g
tissue uptake at 0.5 h [2, 12]: 0.77 ± 0.02 %ID/g
tissue uptake at 1 h [2, 12]: 0.52 ± 0.03 %ID/g
tissue uptake at 2 h [2, 12]: 0.35 ± 0.04 %ID/g
